Results published in patent US20110195068A1, “PD-1 ANTAGONISTS AND METHODS OF USE THEREOF” (priority 2008, published 2011).
Values belong to the molecule of their own block, whether it stands above or below them.

Key:
[1] = biological target: T1, recombinant human PD-1/Fc (Homo sapiens, UniProt Q15116); experiment: PD-1 binding ELISA, human B7-DC-Ig; conditions: plates coated with recombinant human PD-1/Fc, four different lots, FIG. 1A
T1 construct: Fc; purchased R&D Systems
Method: (§1) 96-well ELISA plates were coated with 100 μL 0.75 ug/mL recombinant human PD-1/Fc (R&D Systems) diluted in BupH Carbonate/Bicarbonate pH 9.4 buffer (Pierce) for 2 hours and then blocked with BSA solution (Jackson ImmunoResearch) for 90-120 minutes. […] Absorbance at 450 nm was read using a plate reader (Molecular Devices) and data were analyzed in SoftMax using a 4-parameter logistic fit.

[2] = biological target: T2, recombinant mouse PD-1/Fc (Mus musculus, UniProt Q02242); experiment: PD-1 binding ELISA, murine B7-DC-Ig; conditions: plates coated with recombinant mouse PD-1/Fc, compared with wild type, FIG. 1B
T2 construct: Fc; purchased R&D Systems
Method: as §1, with “mouse” for “human”, “(Candor-Bioscience)” for “(Jackson ImmunoResearch)”, “90” for “90-120”

[3] = system: CT26 colorectal tumor cells; conditions: CTX 100 mg/kg alone, day 10; all mice in the group
Method: Mouse colorectal tumor cell line, CT26, was obtained from ATCC. A master cell bank at Passage 4 was generated following ATCC guidelines.
One vial of tumor cells was thawed from the cryopreserved stocks and grown for two passages prior to inoculation.
CT26 cells were split at 1:5 dilution with 30 mL complete medium (RPMI+10% FBS, 2 mM L-Glu, and 1×P/S) for two days culture or at 1:10 dilution with 30 ml complete medium for 3 days culture.
CT26 cells were harvested by aspirating medium, rinsing the flask with 5 mL PBS, adding 5 mL trypsin, incubating at 37° C. for 2 min, and then neutralizing with 10 mL complete medium. After centrifuge at 600×g (˜1000 rpm) for 5 min, media was aspirated and the cell pellet was resuspended by pipetting with 10 ml plain RPMI. This wash step was repeated for three times.
Cell number and viability of the inoculated cells were analyzed by trypan blue dye staining with proper dilution (e.g. 1:5 dilution, 10 μL cells+40 μL trypan blue) and confirmed by NOVA cell count during the last wash step.
On Day 9, all the tumor-bearing mice were first grouped into a rat cage and randomly divided the mice to experimental groups. CTX solution was reconstituted by 1×PBS to 4 mg/mL. Mice were intraperitoneally (IP) injected with 0.5 mL of CTX solution resulting in 2 mg for a 20 gram mouse, i.e. 100 mg/kg.
The same dose was given 2 time a week for 4 weeks, total 8 doses.

P815 mastocytoma cells = experiment: P815 mastocytoma tumor model; type: in vivo, DBA/2 mice
Method: P815 mastocytoma cells were derived from DBA/2 mice after methylcholanthrene (MCA) treatment. Injection of 5×10^4 cells SC can result in mortality approximately 35 days post tumor inoculation.
DBA/2 mice (6-10 weeks of age, females) were first challenged with 5×10^4 live P815 cells injected SC in the flank. Six days later, the mice were treated with murine B7-DC-Ig via IP injection. […] Control groups were treated with vehicle only or with murine IgG. Tumor size was measured with digital calipers every 2-3 days. Mice were euthanized and defined as dead when their tumor size reached or exceeded 1000 mm^3, according to protocols approved by the Institutional Animal Care and Use Committee (IACUC) of the American Red Cross (ARC; the site of Amplimmune's vivarium). Surviving tumor free mice were re-challenged with P815 tumor cells on Day 52.
The tumor-free mice were then re-challenged with 5×10^4 P815 cells administered to the flank opposite the primary inoculation site on Day 52.

[4] = system: more aggressive, less immunogenic tumor types; experiment: Activity against more aggressive, less immunogenic tumor types; type: in vivo; conditions: single agent
[5] = 100 ug per injection IP, 2 times per week, up to 6 doses
[6] = 5 mice per group, 5 mg/kg IP biw 3 weeks starting Day 6

T2 sequence (Q02242 with tags, fused parts or gaps limits assumed): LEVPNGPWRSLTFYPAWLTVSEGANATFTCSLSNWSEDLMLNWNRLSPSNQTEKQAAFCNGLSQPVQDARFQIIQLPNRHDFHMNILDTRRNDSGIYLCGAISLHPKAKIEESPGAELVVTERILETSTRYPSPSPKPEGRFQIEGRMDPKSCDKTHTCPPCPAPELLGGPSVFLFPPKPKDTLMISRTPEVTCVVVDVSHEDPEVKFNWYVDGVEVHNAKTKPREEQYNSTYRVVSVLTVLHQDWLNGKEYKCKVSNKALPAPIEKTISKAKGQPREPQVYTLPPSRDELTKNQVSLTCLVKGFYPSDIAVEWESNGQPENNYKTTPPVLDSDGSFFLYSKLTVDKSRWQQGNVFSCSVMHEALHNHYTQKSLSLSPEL
T1 sequence (Q15116 with tags, fused parts or gaps limits assumed): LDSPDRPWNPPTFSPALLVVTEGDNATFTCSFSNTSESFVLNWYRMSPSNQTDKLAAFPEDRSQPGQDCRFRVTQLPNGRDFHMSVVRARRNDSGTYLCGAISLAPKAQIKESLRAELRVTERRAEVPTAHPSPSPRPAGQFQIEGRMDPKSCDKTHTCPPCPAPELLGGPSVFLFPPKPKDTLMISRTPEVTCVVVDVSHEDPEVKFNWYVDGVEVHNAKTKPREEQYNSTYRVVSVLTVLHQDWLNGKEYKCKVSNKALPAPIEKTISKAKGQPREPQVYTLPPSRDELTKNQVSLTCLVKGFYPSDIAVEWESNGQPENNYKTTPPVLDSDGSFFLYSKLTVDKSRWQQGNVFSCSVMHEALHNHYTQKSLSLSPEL

- PD-1 binding activity (OD450) [1]: binding
Molecule: B7-DC-Ig: human PD-L2 (B7-DC) extracellular domain fused to hinge, CH2 and CH3 of human immunoglobulin Cγ1 chain (SEQ ID NO:56/57)

- PD-1 binding activity (OD450) [2]: reduced binding to PD-1
Molecule: D111S: murine B7-DC-Ig with the D111S substitution

Molecule: O=P1(N(CCCl)CCCl)NCCCO1 (stereo not shown) [CTX, cyclophosphamide]
- outcome of mice with established tumors [3]: died as a result of tumor growth or were euthanized

- PD-1 binding activity (OD450) [2]: reduced binding to PD-1
Molecule: K113S: murine B7-DC-Ig with the K113S substitution

B1: Murine B7-DC-Ig: murine PD-L2 (B7-DC) extracellular domain fused to hinge, CH2 and CH3 of murine immunoglobulin Cγ2a chain (SEQ ID NO:53/54) (protein, listed as Mus musculus)
chain: LFTVTAPKEVYTVDVGSSVSLECDFDRRECTELEGIRASLQKVENDTSLQSERATLLEEQLPLGKALFHIPSVQVRDSGQYRCLVICGAAWDYKYLTVKVKASYMRIDTRILEVPGTGEVQLTCQARGYPLAEVSWQNVSVPANTSHIRTPEGLYQVTSVLRLKPQPSRNFSCMFWNAHMKELTSAIIDPLSRMEPKVPRTWEPRGPTIKPCPPCKCPAPNLLGGPSVFIFPPKIKDVLMISLSPIVTCVVVDVSEDDPDVQISWFVNNVEVHTAQTQTHREDYNSTLRVVSALPIQHQDWMSGKEFKCKVNNKDLPAPIERTISKPKGSVRAPQVYVLPPPEEEMTKKQVTLTCMVTDFMPEDIYVEWTNNGKTELNYKNTEPVLDSDGSYFMYSKLRVEKKNWVERNSYSCSVVHEGLHNHHTTKSFSRTPGK
- mice in which tumor was eradicated (P815 mastocytoma cells; [5]): two
- mice responded to treatment (P815 mastocytoma cells; [5]): Four of 5
- mice with delayed tumor growth during treatment (P815 mastocytoma cells; [5]): two
- # Tumor <500 mm^3 (P815 mastocytoma cells; [6]): 2
- # Tumor free (P815 mastocytoma cells; [6]): 2
- # Tumor ≧500 mm^3 (P815 mastocytoma cells; [6]): 1
- outcome of re-challenge of tumor-free mice (P815 mastocytoma cells; re-challenged with 5×10^4 P815 cells on Day 52, opposite flank, through 74 days after primary inoculation): remained tumor free
- anti-tumor activity alone in the P815 model (P815 mastocytoma cells; single agent): effective
- anti-tumor activity alone against more aggressive, less immunogenic tumor types [4]: minimal activity
